Laboratory results from article PMC11806408 (2025).

Biological target: fibrillin‐1 fragment start‐EGF4 (UniProt P35555 45-287)
Assay: SPR

Chain of fibrillin‐1 fragment start‐EGF4 (P35555 45-287): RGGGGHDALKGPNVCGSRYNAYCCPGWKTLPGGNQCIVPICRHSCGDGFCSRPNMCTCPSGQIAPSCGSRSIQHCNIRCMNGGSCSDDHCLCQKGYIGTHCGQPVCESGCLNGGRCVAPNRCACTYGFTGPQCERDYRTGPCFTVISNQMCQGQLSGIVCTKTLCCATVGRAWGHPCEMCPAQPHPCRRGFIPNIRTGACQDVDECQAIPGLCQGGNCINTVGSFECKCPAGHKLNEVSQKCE

- Kd: 14.4 nM
B1: processed BMP‐10 CPLX (tag‐free, HEK293) (complex)
chain 1: SPIMNLEQSPLEEDMSLFGDVFSEQDGVDFNTLLQSMKDEFLKTLNLSDIPTQDSAKVDPPEYMLELYNKFATDRTSMPSANIIRSFKNEDLFSQPVSFNGLRKYPLLFNVSIPHHEEVIMAELRLYTLVQRDRMIYDGVDRKITIFEVLESKGDNEGERNMLVLVSGEIYGTNSEWETFDVTDAIRRWQKSGSSTHQLEVHIESKHDEAEDASSGRLEIDTSAQNKHNPLLIVFSDDQSSDKERKEELNEMISHEQLPELDNLGLDSFSSGPGEEALLQMRSNIIYDSTARIRR
chain 2: NAKGNYCKRTPLYIDFKEIGWDSWIIAPPGYEAYECRGVCNYPLAEHLTPTKHAIIQALVHLKNSQKASKACCVPTKLEPISILYLDKGVVTYKFKYEGMAVSECGCR
modifications: N‐glycosylation
